Data reported in patent US20140050720A1 (Scripps Research, published 2014).

B1: BLV1H12-GLP-1 fusion antibody (antibody, human IgG1)
heavy: not shown
light: QAVLNQPSSVSGSLGQRVSITCSGSSSNVGNGYVSWYQLIPGSAPRTLIYGDTSRASGVPDRFSGSRSGNTATLTISSLQAEDEADYFCASAEDSSSNAVFGSGTTLTVLGQPKSPPSVTLFPPSTEELNGNKATLVCLISDFYPGSVTVVWKADGSTITRNVETTRASKQSNSKYAASSYLSLTSSDWKSKGSYSCEVTHEGSTVTKTVKPSECS
B2: BLV1H12-GLP-1 clip fusion antibody (antibody)
heavy: not shown
light: QAVLNQPSSVSGSLGQRVSITCSGSSSNVGNGYVSWYQLIPGSAPRTLIYGDTSRASGVPDRFSGSRSGNTATLTISSLQAEDEADYFCASAEDSSSNAVFGSGTTLTVLGQPKSPPSVTLFPPSTEELNGNKATLVCLISDFYPGSVTVVWKADGSTITRNVETTRASKQSNSKYAASSYLSLTSSDWKSKGSYSCEVTHEGSTVTKTVKPSECS
modifications: cleaved by Factor Xa at the IEGR site in front of GLP-1, releasing the N-terminus of GLP-1
B3: BLV1H12-Ex-4 fusion antibody (antibody, human IgG1)
heavy: not shown
light: QAVLNQPSSVSGSLGQRVSITCSGSSSNVGNGYVSWYQLIPGSAPRTLIYGDTSRASGVPDRFSGSRSGNTATLTISSLQAEDEADYFCASAEDSSSNAVFGSGTTLTVLGQPKSPPSVTLFPPSTEELNGNKATLVCLISDFYPGSVTVVWKADGSTITRNVETTRASKQSNSKYAASSYLSLTSSDWKSKGSYSCEVTHEGSTVTKTVKPSECS

Each binder was assayed against GLP-1 receptor on HEK293 cells carrying a cAMP responsive luciferase reporter gene (UniProt P43220 24-463, limits assumed) (assay: cell-based or functional assay).
With B1 the “RLU (cAMP responsive luciferase reporter) at 1.26953 nM” value (from here on “RLU … at 1.26953 nM”) was 18600 RLU, the “RLU (cAMP responsive luciferase reporter) at 2.53906 nM” value (“RLU … at 2.53906 nM” below) was 24500 RLU and the “RLU (cAMP responsive luciferase reporter) at 5.07813 nM” value (shortened to “RLU … at 5.07813 nM”) was 43200 RLU. For the same binder, the “RLU (cAMP responsive luciferase reporter) at 10.15625 nM” value (“RLU … at 10.15625 nM” for short) was 66600 RLU, the “RLU (cAMP responsive luciferase reporter) at 20.3125 nM” value (“RLU … at 20.3125 nM” for short) was 105000 RLU and the “RLU (cAMP responsive luciferase reporter) at 40.625 nM” value (“RLU … at 40.625 nM” below) was 144000 RLU. For the same binder, the “RLU (cAMP responsive luciferase reporter) at 81.25 nM” value (from here on “RLU … at 81.25 nM”) was 151000 RLU, the “RLU (cAMP responsive luciferase reporter) at 162.5 nM” value (from here on “RLU … at 162.5 nM”) was 167000 RLU and the “RLU (cAMP responsive luciferase reporter) at 325 nM” value (from here on “RLU … at 325 nM”) was 171000 RLU. For the same binder, the “RLU (cAMP responsive luciferase reporter) at 650 nM” value (“RLU … at 650 nM” below) was 160000 RLU and the “RLU (cAMP responsive luciferase reporter) at 1300 nM” value (shortened to “RLU … at 1300 nM”) was 185000 RLU.
In the case of B2, the “RLU … at 1.26953 nM” value is reported as 4740 RLU, the “RLU … at 2.53906 nM” value is reported as 5800 RLU and the “RLU … at 5.07813 nM” value is reported as 4400 RLU. For the same binder, the “RLU … at 10.15625 nM” value was 5200 RLU, the “RLU … at 20.3125 nM” value was 7780 RLU and the “RLU … at 40.625 nM” value was 13600 RLU. For the same binder, the “RLU … at 81.25 nM” value was 33800 RLU, the “RLU … at 162.5 nM” value was 65800 RLU and the “RLU … at 325 nM” value was 101000 RLU. For the same binder, the “RLU … at 650 nM” value was 141000 RLU and the “RLU … at 1300 nM” value was 169000 RLU.
B3 was tested, and the “RLU … at 1.26953 nM” value was 6120 RLU, the “RLU … at 2.53906 nM” value was 6360 RLU and the “RLU … at 5.07813 nM” value was 8500 RLU. The “RLU … at 10.15625 nM” value was 10400 RLU, the “RLU … at 20.3125 nM” value was 19300 RLU and the “RLU … at 40.625 nM” value was 28000 RLU. The “RLU … at 81.25 nM” value was 54800 RLU, the “RLU … at 162.5 nM” value was 90700 RLU and the “RLU … at 325 nM” value was 118000 RLU. For the same binder, the “RLU … at 650 nM” value was 135000 RLU and the “RLU … at 1300 nM” value was 160000 RLU.
